Consider four molecules from US20150267177A1.

In data set [1] the target is T1, Act-MGA3 (MDH activator protein Act of Bacillus methanolicus MGA3).
T1 sequence (Q8KP10 2-185, looked up): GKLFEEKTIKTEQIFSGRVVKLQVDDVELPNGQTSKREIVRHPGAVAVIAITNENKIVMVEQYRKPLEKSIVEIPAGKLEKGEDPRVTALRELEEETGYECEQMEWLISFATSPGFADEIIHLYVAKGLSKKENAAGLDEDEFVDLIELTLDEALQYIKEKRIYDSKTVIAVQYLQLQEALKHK

Data set [2] addresses T2, Mdh-MGA3 (methanol dehydrogenase Mdh of Bacillus methanolicus MGA3, encoded on plasmid pBM19) (Bacillus methanolicus MGA3) (UniProt P31005).
T2 sequence: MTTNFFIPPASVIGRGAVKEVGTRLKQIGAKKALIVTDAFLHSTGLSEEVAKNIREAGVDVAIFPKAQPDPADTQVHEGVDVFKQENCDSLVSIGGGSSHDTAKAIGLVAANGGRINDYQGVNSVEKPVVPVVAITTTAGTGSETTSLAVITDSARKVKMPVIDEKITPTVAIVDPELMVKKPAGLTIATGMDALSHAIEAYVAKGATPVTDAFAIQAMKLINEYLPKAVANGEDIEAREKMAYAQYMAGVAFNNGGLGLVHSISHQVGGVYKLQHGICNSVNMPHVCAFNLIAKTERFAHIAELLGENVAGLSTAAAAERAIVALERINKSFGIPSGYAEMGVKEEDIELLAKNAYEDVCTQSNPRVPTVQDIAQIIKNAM
Put plainly: cell-based or functional assay.

Data set [3] addresses T3, Mdh2-MGA3 (methanol dehydrogenase Mdh2 of Bacillus methanolicus MGA3) (Bacillus methanolicus MGA3).
T3 sequence: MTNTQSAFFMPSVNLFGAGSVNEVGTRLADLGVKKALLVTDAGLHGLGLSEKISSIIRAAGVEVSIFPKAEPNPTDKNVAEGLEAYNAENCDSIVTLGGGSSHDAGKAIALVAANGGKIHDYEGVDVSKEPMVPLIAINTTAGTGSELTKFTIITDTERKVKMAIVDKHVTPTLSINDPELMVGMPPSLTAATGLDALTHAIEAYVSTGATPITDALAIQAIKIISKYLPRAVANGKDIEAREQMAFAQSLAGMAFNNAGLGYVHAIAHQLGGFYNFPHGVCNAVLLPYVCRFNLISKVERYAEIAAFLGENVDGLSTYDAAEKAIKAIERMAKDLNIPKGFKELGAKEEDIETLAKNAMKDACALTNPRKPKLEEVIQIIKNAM
The data set can be described thus: cell-based or functional assay.

For data set [4], the target named is T4, Mdh3-MGA3 (methanol dehydrogenase Mdh3 of Bacillus methanolicus MGA3) (Bacillus methanolicus MGA3).
T4 sequence: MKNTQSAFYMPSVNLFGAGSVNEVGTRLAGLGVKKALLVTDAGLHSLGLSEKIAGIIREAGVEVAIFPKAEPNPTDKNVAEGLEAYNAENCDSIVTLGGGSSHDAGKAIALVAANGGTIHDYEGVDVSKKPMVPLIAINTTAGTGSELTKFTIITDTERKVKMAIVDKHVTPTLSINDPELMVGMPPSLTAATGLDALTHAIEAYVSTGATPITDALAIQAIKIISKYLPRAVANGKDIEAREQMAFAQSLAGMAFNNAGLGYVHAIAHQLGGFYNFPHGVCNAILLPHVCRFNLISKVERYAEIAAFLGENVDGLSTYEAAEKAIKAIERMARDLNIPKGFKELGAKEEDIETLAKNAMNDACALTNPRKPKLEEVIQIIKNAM
The data set can be described thus: cell-based or functional assay.

A further data set has as its target the MGA3 MDHs. The data set can be described thus: cell-based or functional assay.
In data set [5] the target is T5, Mdh-MGA3 (methanol dehydrogenase Mdh of Bacillus methanolicus MGA3, encoded on plasmid pBM19).
T5 chain: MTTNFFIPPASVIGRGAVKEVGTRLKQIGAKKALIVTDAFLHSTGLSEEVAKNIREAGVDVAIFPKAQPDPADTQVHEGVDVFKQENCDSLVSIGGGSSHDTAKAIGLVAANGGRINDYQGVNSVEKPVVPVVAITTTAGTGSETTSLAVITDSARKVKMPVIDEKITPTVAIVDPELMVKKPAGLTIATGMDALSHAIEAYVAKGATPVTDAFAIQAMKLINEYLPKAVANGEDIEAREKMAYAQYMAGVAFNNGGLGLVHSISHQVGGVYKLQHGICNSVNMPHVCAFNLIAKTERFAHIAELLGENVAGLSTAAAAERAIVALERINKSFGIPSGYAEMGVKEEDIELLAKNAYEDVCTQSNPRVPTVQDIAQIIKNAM

Data set [6] concerns the target T6, Act-PB1 (MDH activator protein Act of Bacillus methanolicus PB1).
T6 sequence (Q8KP10 2-185, looked up): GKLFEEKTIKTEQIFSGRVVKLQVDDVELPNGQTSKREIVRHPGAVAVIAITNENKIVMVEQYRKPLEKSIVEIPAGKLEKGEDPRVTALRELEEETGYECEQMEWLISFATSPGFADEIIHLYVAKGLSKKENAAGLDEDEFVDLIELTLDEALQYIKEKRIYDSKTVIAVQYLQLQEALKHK

B1: Mdh-MGA3 (methanol dehydrogenase Mdh of Bacillus methanolicus MGA3, encoded on plasmid pBM19) (protein)
chain: MTTNFFIPPASVIGRGAVKEVGTRLKQIGAKKALIVTDAFLHSTGLSEEVAKNIREAGVDVAIFPKAQPDPADTQVHEGVDVFKQENCDSLVSIGGGSSHDTAKAIGLVAANGGRINDYQGVNSVEKPVVPVVAITTTAGTGSETTSLAVITDSARKVKMPVIDEKITPTVAIVDPELMVKKPAGLTIATGMDALSHAIEAYVAKGATPVTDAFAIQAMKLINEYLPKAVANGEDIEAREKMAYAQYMAGVAFNNGGLGLVHSISHQVGGVYKLQHGICNSVNMPHVCAFNLIAKTERFAHIAELLGENVAGLSTAAAAERAIVALERINKSFGIPSGYAEMGVKEEDIELLAKNAYEDVCTQSNPRVPTVQDIAQIIKNAM
Turning to B1, in data set [1], the Km for methanol in the presence of Act (20 ug MDH + 20 ug Act) turned out to be 12 mM; the “MDH catalytic activity with methanol as substrate, at relative concentrations of the proteins of 1:2-20:1” value is “Full activation was reached at a relative concentration of between 1:1 and 5:1 and no inhibition due to relative high activator concentrations was observed”; the Vmax with methanol in the presence of Act (20 ug MDH + 20 ug Act) is 0.5 U/mg; the “Vmax with methanol, with Act against single enzyme assay” value was “The Vmax values were increased 4-6-fold compared to in the single enzyme assays”. For the same molecule, in data set [1], the “fold reduction of Km,MeOH by Act” value is listed as “dramatically reduced (17-fold) to 12 mM for Mdh-MGA3 when Act was added to the reaction”; the “fold stimulation of Mdh activity, ethanol as substrate” value was “Mdh activity was stimulated equally well (about 8-fold) with NudF as with Act”; the “methanol dehydrogenase activity in lysates of recombinant B. subtilis 168, methanol or ethanol as substrate, 50 C” value is reported as “In all cases, methanol dehydrogenase activities were significantly stimulated by Act”.

B2: Act-MGA3 (MDH activator protein Act of Bacillus methanolicus MGA3) (protein, UniProt Q8KP10 2-185, looked up)
Methanol dehydrogenase activator: GKLFEEKTIKTEQIFSGRVVKLQVDDVELPNGQTSKREIVRHPGAVAVIAITNENKIVMVEQYRKPLEKSIVEIPAGKLEKGEDPRVTALRELEEETGYECEQMEWLISFATSPGFADEIIHLYVAKGLSKKENAAGLDEDEFVDLIELTLDEALQYIKEKRIYDSKTVIAVQYLQLQEALKHK
As for B2, in data set [2], the Mdh activity in vitro, crude extract of E. coli co-expressing Act, 37 C, +Act was determined as 464 mU/mg; the Mdh activity in vitro, crude extract of E. coli co-expressing Act, 45 C, +Act turned out to be 1260 mU/mg; the Mdh activity in vivo, E. coli cells co-expressing Act, 37 C, +Act was determined as 1 mU/mg; the Mdh activity in vivo, E. coli cells co-expressing Act, 42 C, +Act turned out to be 1 mU/mg. In data set [3], this molecule returned a Mdh activity in vitro, crude extract of E. coli co-expressing Act, 37 C, +Act of 672 mU/mg; a Mdh activity in vitro, crude extract of E. coli co-expressing Act, 45 C, +Act of 1910 mU/mg; a Mdh activity in vivo, E. coli cells co-expressing Act, 37 C, +Act of 9 mU/mg; a Mdh activity in vivo, E. coli cells co-expressing Act, 42 C, +Act of 11.3 mU/mg. Also, in data set [4], the Mdh activity in vitro, crude extract of E. coli co-expressing Act, 37 C, +Act was 327 mU/mg; the Mdh activity in vitro, crude extract of E. coli co-expressing Act, 45 C, +Act worked out at 867 mU/mg; the Mdh activity in vivo, E. coli cells co-expressing Act, 37 C, +Act came out at 11 mU/mg; the Mdh activity in vivo, E. coli cells co-expressing Act, 42 C, +Act worked out at 24 mU/mg. In the data set with the MGA3 MDHs, this molecule had a fold increase of catalytic activity, ethanol as substrate of 6 to 8 fold and a fold induction of MDH activity, methanol as substrate, MDH:Act 1:1 of 5 to 7 fold.

B3: B. subtilis NudF protein (nudF gene product, ADP-ribose pyrophosphatase subfamily of Nudix hydrolases) (protein)
chain: MKSLEEKTIAKEQIFSGKVIDLYVEDVELPNGKASKREIVKHPGAVAVLAVTDEGKIIMVKQFRKPLERTIVEIPAGKLEKGEEPEYTALRELEEETGYTAKKLTKITAFYTSPGFADEIVHVFLAEELSVLEEKRELDEDEFVEVMEVTLEDALKLVESREVYDAKTAYAIQYLQLKEALQAQK
Consider B3, for which, in data set [5], the “fold stimulation of Mdh activity, ethanol as substrate” value is “Mdh activity was stimulated equally well (about 8-fold) with NudF as with Act”.

B4: Mdh2-PB1 (methanol dehydrogenase Mdh2 of Bacillus methanolicus PB1) (protein)
chain: MTNTQSIFYIPSVNLFGPGSVNEVGTRLAGLGVKKALLVTDAGLHGLGLSEKIASIIREAGVEVLIFPKAEPNPTDKNVAEGLEVYNAENCDSIVTLGGGSSHDAGKGIALVAANGGTIYDYEGVDKSKKPMVPLIAINTTAGTGSELTRFTIITDTERKVKMAIVDKHVTPTLSINDPELMVGMPPSLTAATGLDALTHAIEAYVSTAATPITDALAIQAIKIISKYLPRAFANGKDMEAREQMAFAQSLAGMAFNNASLGYVHAIAHQFGGFYNFPHGVCNAILLPHVCRFNLISKVERFAEIAALLGENVAGLSTREAAEKGIKAIERMAKDLNIPRGFKELGAKEEDIVTLAENAMKDATALTNPRKPKLEEVIQIIKNAM
With B4, in data set [6], the Km for methanol in the presence of Act (20 ug MDH + 20 ug Act) came out at 36 mM; the Vmax with methanol in the presence of Act (20 ug MDH + 20 ug Act) came to 0.24 U/mg; the “Vmax with methanol, with Act against single enzyme assay” value was “The Vmax values were increased 4-6-fold compared to in the single enzyme assays”; the “fold reduction of Km,MeOH by Act” value is on record as “moderately (4-fold) reduced by Act for Mdh2-PB1”.
